Results reported in paper PMC8125372, “Refining the Design of Diblock Elastin-Like Polypeptides for Self-Assembly into Nanoparticles” (Polymers, 2021).

Molecular target: the molecule itself
Assay: dynamic light scattering; 10 µM ELP in PBS on a heating ramp (7-40 °C in the legend, 7-37 °C in the methods), scattering angle 90°; nanoparticles between the CMT and Tt,bulk (18.5 and 27 °C for ELP-[*M1V3-40]-[I-90]; 19 and 31 °C for ELP-[*M1V3-60]-[I-90])

B1: ELP-[*M1V3-40]-[I-90] (other)
chain: MWVPGVGVPGMGVPGVGVPGVGVPGVGVPGMGVPGVGVPGVGVPGVGVPGMGVPGVGVPGVGVPGVGVPGMGVPGVGVPGVGVPGVGVPGMGVPGVGVPGVGVPGVGVPGMGVPGVGVPGVGVPGVGVPGMGVPGVGVPGVGVPGVGVPGMGVPGVGVPGVGVPGVGVPGMGVPGVGVPGVGVPGVGVPGMGVPGVGVPGVGIGVPGIGVPGIGVPGIGVPGIGVPGIGVPGIGVPGIGVPGIGVPGIGVPGIGVPGIGVPGIGVPGIGVPGIGVPGIGVPGIGVPGIGVPGIGVPGIGVPGIGVPGIGVPGIGVPGIGVPGIGVPGIGVPGIGVPGIGVPGIGVPGIGVPGIGVPGIGVPGIGVPGIGVPGIGVPGIGVPGIGVPGIGVPGIGVPGIGVPGIGVPGIGVPGIGVPGIGVPGIGVPGIGVPGIGVPGIGVPGIGVPGIGVPGIGVPGIGVPGIGVPGIGVPGIGVPGIGVPGIGVPGIGVPGIGVPGIGVPGIGVPGIGVPGIGVPGIGVPGIGVPGIGVPGIGVPGIGVPGIGVPGIGVPGIGVPGIGVPGIGVPGIGVPGIGVPGIGVPGIGVPGIGVPGIGVPGIGVPGIGVPGIGVPGIGVPGIGVPGIGVPGIGVPGIGVPGIGVPGIGVPGIGVPGY
modifications: Thioether side chain of Met residues oxidized into sulfoxide M(O) with H2O2 (11 Met); two Met residues were found oxidized into sulfone M(O2)
notes: N-terminal leader of the elastin-like polypeptide; C-terminal residue; also called oxidized ELP-[M1V3-40]-[I-90]; source: E. coli BL21 Star (DE3), purified (inverse transition cycling with ammonium sulfate, desalting), then oxidised with H2O2
Question: Does B1 bind?
Answer: binds
